Assay results from the supplement of paper PMC9732359.
± gives the uncertainty stated by the source.

Assay: protein stability index of a GFP-peptide fusion (yeast GPS) (PSI 1-4); higher = more stable; sorted into four equal gates, so the index is relative within each strain
How it was run: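 Tiled 17-residue yeast protein peptides were fused downstream of GFP in a plasmid that also expresses Cherry, and the pooled library was carried in yeast. Mid-log cultures in leucine-free medium were sorted into four equal gates by GFP/Cherry fluorescence ratio, and plasmids from each gate were PCR-amplified and Illumina-sequenced, with reads assigned to strains by barcodes. The protein stability index for each peptide was each gate's read frequency times its gate number, summed.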

Row | Sequence | protein stability index (doa10∆) | protein stability index (ubr1∆) | protein stability index (pdr5∆) | protein stability index (san1∆)
1 | LLSSSNFEATKKSVLKQ [COR1] | 2.81 ± 0.29 | 2.83 ± 0.28 | – | –
2 | LNIDFGSDKQMFTQIYL [YML103C/NUP188] | 3.17 ± 0.14 | 3.25 ± 0.066 | 2.99 ± 0.15 | 2.46 ± 0.12
3 | SKNCYLSEATESDLYKL [RPB2] | 3.02 ± 0.12 | 2.75 ± 0.093 | 3.22 ± 0.14 | 2.9 ± 0.17
4 | YILEAEAAAKEKDELDN [QCR7] | 3.1 ± 0.24 | 3.18 ± 0.079 | 3.11 ± 0.11 | 3.1 ± 0.14
5 | QVNQLQRILEVLGTPDQ [SSN3] | 1.49 ± 0.043 | 1.51 ± 0.038 | 1.69 ± 0.037 | 1.34 ± 0.05
6 | SHNFQNAIFQMESEEVP [PCI8] | 2.85 ± 0.059 | 3.07 ± 0.05 | 3.07 ± 0.068 | 2.7 ± 0.049
7 | DDNETENPNFWRQFGNR [GRR1] | 3.17 ± 0.076 | 3.21 ± 0.056 | 3.23 ± 0.056 | 3.31 ± 0.06
8 | QEGLAKFGACVAQGIMN [RPN2] | 1.79 ± 0.058 | 1.58 ± 0.051 | 1.75 ± 0.042 | 1.88 ± 0.14
9 | FESSSSLPFLLRHMPLA [SSN2] | 2.17 ± 0.16 | 1.48 ± 0.11 | 1.61 ± 0.17 | 2.76 ± 0.18
10 | LSDLSSPVQDWNLLRSL [YML103C/NUP188] | 3.29 ± 0.14 | 2.65 ± 0.14 | 3.07 ± 0.17 | 2.86 ± 0.1
11 | TFNSKPVRTIVPISTSQ [SIR4] | 2.32 ± 0.037 | 2.35 ± 0.028 | 2.46 ± 0.037 | 2.42 ± 0.039
12 | RNARAARAAKIAPRPLD [RPL13B] | 2.86 ± 0.12 | 2.45 ± 0.056 | 3.11 ± 0.09 | 3.14 ± 0.074
13 | ALYRVNDLRDMILNYNP [UBP6] | 2.81 ± 0.12 | 2.99 ± 0.12 | 2.73 ± 0.19 | 2.81 ± 0.17
14 | QDIYYLAQTLKLWRKIA [RRI2] | 2.04 ± 0.057 | 1.63 ± 0.047 | 2.17 ± 0.046 | 1.88 ± 0.07
15 | KFMTNSTAFVPTIEYVQ [ARP9] | 2.22 ± 0.062 | 2.62 ± 0.041 | 2.65 ± 0.048 | 2.83 ± 0.076
16 | FKKQMQTIMKMGPLSNI [SRP54] | 2.59 ± 0.11 | 2.92 ± 0.072 | 3.14 ± 0.074 | 3.03 ± 0.1
17 | EIKKVTQIVAKFPETSY [SIN4] | 2.25 ± 0.27 | 2.57 ± 0.27 | 3.02 ± 0.11 | –
18 | EVLLAGFGRKGKAKGDI [RPS23A] | 3.41 ± 0.099 | 3.22 ± 0.071 | 3.24 ± 0.093 | 3.41 ± 0.045
19 | KEKEKEREEAEKKRAEQ [MED2] | – | – | – | 2.75 ± 0.28
20 | TETSNEDEDEDDETPSC [SNU114] | 2.68 ± 0.067 | 2.74 ± 0.046 | 2.75 ± 0.058 | 3.02 ± 0.055
21 | NEPLSEIEIEGVMSLLQ [YAR002W/NUP60] | 3.31 ± 0.093 | 3.19 ± 0.094 | 3.32 ± 0.14 | 3.22 ± 0.11
22 | GNPGRIRVLFKENGQLI [SEC65] | 2.38 ± 0.055 | 2.44 ± 0.059 | 2.24 ± 0.072 | 2.33 ± 0.11
23 | DIVSIDIEEPQLDLLDD [MTW1] | 2.66 ± 0.098 | 3.16 ± 0.048 | 3.17 ± 0.097 | 3.25 ± 0.05
24 | NCNIKDFKPPYIYSHVN [SWP82] | 2.73 ± 0.086 | 2.91 ± 0.057 | 2.77 ± 0.086 | 2.45 ± 0.11
25 | SEGFEPTFSTHAQLLLS [PRP8] | 1.96 ± 0.038 | 1.97 ± 0.034 | 2.08 ± 0.037 | 1.66 ± 0.048
26 | NGVPGQALDAVRMRLAQ [MED8] | 1.38 ± 0.067 | 1.26 ± 0.047 | 1.39 ± 0.063 | 1.25 ± 0.1
27 | EPYVAYGYPSYSTIRQL [RPL7A] | 1.87 ± 0.044 | 2.23 ± 0.036 | 2.14 ± 0.048 | 2.14 ± 0.058
28 | YKATATGPKQQEITTNL [SCL1] | 3.17 ± 0.064 | 3.29 ± 0.078 | 3 ± 0.11 | 2.93 ± 0.057

Row | Sequence | protein stability index (doa10∆) | protein stability index (ubr1∆) | protein stability index (pdr5∆) | protein stability index (san1∆)
29 | AQASEEENDLQQKLNTR [REC8] | 2.96 ± 0.26 | – | – | –
30 | KLNELDELILEAKERYT [NNF1] | 2.98 ± 0.11 | 2.82 ± 0.16 | 3.17 ± 0.096 | 3.23 ± 0.058
31 | TFLVSNDDEVSQFCYVS [RPN14] | 2 ± 0.13 | – | 2.55 ± 0.23 | 2.28 ± 0.13
32 | EKLDVSRSSVCVKAIEA [YCG1] | 2.54 ± 0.065 | 2.11 ± 0.058 | 2.16 ± 0.058 | 2.08 ± 0.079
33 | RFKMERAGVTHVLSRLS [RET1] | – | 1.3 ± 0.23 | 1.55 ± 0.18 | 1.2 ± 0.27
34 | LKDSKDFDESLKYLDDL [RPN9] | 3.02 ± 0.21 | 2.86 ± 0.17 | 3.21 ± 0.14 | –
35 | GNNNNNNSGNDNNNTTN [MED2] | 3.06 ± 0.056 | 2.93 ± 0.078 | 3.05 ± 0.058 | 3.08 ± 0.045
36 | PNEFMQFKSKEVEKAHP [PRP8] | 3.16 ± 0.08 | 3.25 ± 0.091 | 3.37 ± 0.11 | 3.23 ± 0.052
37 | SKSYTPRKLVLSSGENR [SMC4] | 1.65 ± 0.03 | 1.7 ± 0.037 | 1.82 ± 0.041 | 1.93 ± 0.056
38 | TSKWLNSITSGGLKSCD [YDL116W/NUP84] | 2.94 ± 0.097 | 2.7 ± 0.052 | 3.17 ± 0.089 | 3.42 ± 0.078
39 | NESWKSSFEKFNDSQAI [SRP72] | 2.96 ± 0.055 | 3.02 ± 0.037 | 2.96 ± 0.059 | 2.79 ± 0.043
40 | KIMPKDILQITKKPLMV [SIR4] | 2.62 ± 0.088 | 2.56 ± 0.09 | 2.79 ± 0.17 | 2.32 ± 0.1
41 | PIYTGDGWVKLTYKSEL [YMR153W/NUP53] | 2.24 ± 0.081 | 1.98 ± 0.049 | 2.38 ± 0.09 | 2.45 ± 0.11
42 | PGVRVSGEDVIIGKTTP [RPB2] | 3.36 ± 0.13 | 3.45 ± 0.073 | 3.41 ± 0.16 | 3.61 ± 0.078
43 | KRQYVKQFLTKDLKFPL [RPL20A] | 3 ± 0.055 | 2.83 ± 0.04 | 2.94 ± 0.061 | 2.76 ± 0.063
44 | FHIACSVGNLEVVKSLY [NAS6] | 2.08 ± 0.078 | 2.67 ± 0.065 | 2.39 ± 0.068 | 2.45 ± 0.056
45 | MAVGKNKRLSKGKKGQK [RPS1A] | 1.5 ± 0.14 | 1.45 ± 0.12 | 1.62 ± 0.086 | 1.65 ± 0.15
46 | SRDLDISSSTQCLRFLK [POP6] | 2.46 ± 0.1 | 3.05 ± 0.061 | 2.24 ± 0.05 | 2.7 ± 0.14
47 | IANMVLPPEKIYSPLHS [SIR2] | 1.54 ± 0.035 | 1.67 ± 0.032 | 1.99 ± 0.036 | 1.73 ± 0.05
48 | LAINAKTITSGLKYALA [RPB2] | 2.65 ± 0.057 | 2.79 ± 0.044 | 2.83 ± 0.073 | 2.4 ± 0.061
49 | EFKIEQNNEQNPIDPFN [YDL116W/NUP84] | 2.96 ± 0.087 | 3.23 ± 0.061 | 3.11 ± 0.087 | 3.05 ± 0.067
50 | MSVEPVVVIDGKGHLVG [RPL16A] | 3.13 ± 0.15 | 3.1 ± 0.089 | 3.42 ± 0.19 | 2.63 ± 0.11
51 | MVAATKRRKTHIHKHVK [RET1] | 2.96 ± 0.17 | 3.09 ± 0.1 | 3.08 ± 0.15 | 2.31 ± 0.2
52 | KAKSHFTNIISRNKALE [YJL039C/NUP192] | 2.66 ± 0.079 | 2.68 ± 0.075 | 2.01 ± 0.053 | 2.39 ± 0.13
53 | KNGLGLNFSTTAPANTT [MED2] | 2.16 ± 0.07 | 2.06 ± 0.042 | 2.38 ± 0.047 | 2.15 ± 0.072
54 | KSTASTAAANTEKLSNG [YOR098C/NUP1] | 2.91 ± 0.23 | 3.31 ± 0.091 | 3.11 ± 0.16 | 3.1 ± 0.12
55 | HFIQKLHTARKILVLTG [SIR2] | 1.74 ± 0.14 | 1.66 ± 0.21 | 2.36 ± 0.16 | 1.1 ± 0.15
